The target in experiment [1] is SARS-CoV-2 Spike on HIV-based pseudotyped virus (Spike plasmid BEI NR52310) (SARS-CoV-2) (UniProt P0DTC2). Nature of the experiment: cell-based or functional assay.
Experiment [2] concerns the target mouse FcRn (mouse) (UniProt Q61559).
For experiment [3] the target is unchanged. Nature of the experiment: pH 5.6.
The target in experiment [4] is mouse FcγRI (mouse) (UniProt P26151).
Sequence of mouse FcγRI (mouse) (P26151 25-297 limits assumed): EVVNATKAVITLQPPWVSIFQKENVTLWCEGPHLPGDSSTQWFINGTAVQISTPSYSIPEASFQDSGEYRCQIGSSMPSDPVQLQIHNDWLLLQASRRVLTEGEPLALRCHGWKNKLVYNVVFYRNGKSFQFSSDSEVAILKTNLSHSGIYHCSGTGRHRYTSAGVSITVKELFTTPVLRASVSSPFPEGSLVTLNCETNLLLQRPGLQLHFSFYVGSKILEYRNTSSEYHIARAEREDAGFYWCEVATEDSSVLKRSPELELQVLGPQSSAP

Sequence of mouse FcRn (mouse) (Q61559 22-297 limits assumed, form in doubt, chain 1 of 2): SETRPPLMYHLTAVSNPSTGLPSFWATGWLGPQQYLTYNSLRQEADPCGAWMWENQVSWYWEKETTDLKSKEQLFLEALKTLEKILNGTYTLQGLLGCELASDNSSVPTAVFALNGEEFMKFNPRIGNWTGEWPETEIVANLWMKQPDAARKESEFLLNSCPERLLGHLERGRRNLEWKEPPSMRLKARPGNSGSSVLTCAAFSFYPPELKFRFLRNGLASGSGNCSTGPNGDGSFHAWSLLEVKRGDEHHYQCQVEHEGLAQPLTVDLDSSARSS
Sequence of mouse FcRn (mouse) (chain, as listed by the source limits assumed, form in doubt, chain 2 of 2): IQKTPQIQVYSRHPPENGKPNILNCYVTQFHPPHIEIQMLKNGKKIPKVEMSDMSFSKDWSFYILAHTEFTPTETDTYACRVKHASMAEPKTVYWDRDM

“REGN10933 (recombinant mAb, reference IgG) (antibody)” yielded an IC50 (PsV neutralization) in experiment [1] of 0.0044 µg/mL.
As to “REGN10987 (recombinant mAb, reference IgG) (antibody)”, the IC50 (PsV neutralization) in experiment [1] turned out to be 0.03 µg/mL.
Substance mouse surrogate Multabody with LALAP Fc returned an on-rate constant (kon) in experiment [2] of 2.4e+06 M⁻¹ s⁻¹. Further, in experiment [3], the Kd was less than 1 pM and the koff is less than 1e-07 s⁻¹.
Substance “mouse surrogate Multabody (HD37, mouse IgG2a Fc, mouse apoferritin), WT Fc” returned a kon in experiment [2] of 682000 M⁻¹ s⁻¹. Moreover, in experiment [3], the equilibrium dissociation constant (Kd) was less than 1 pM and the koff is less than 1e-07 s⁻¹. In experiment [4], the Kd is less than 1 pM, the dissociation rate constant (koff) is less than 1e-07 s⁻¹ and the kon is 939000 M⁻¹ s⁻¹.

For orientation: kon means the second-order rate constant of association. Read a high kon as faster complex formation. As a reminder, the Kd is a measure of binding affinity in units of concentration. Read a high Kd as weaker binding. Usually koff stands for the rate constant with which the complex falls apart.

For the origin of these results see US20250011397A1.
